Results on 1 protein are retold here after paper PMC10666288, “Unveiling the Catalytic Mechanism of a Processive Metalloaminopeptidase” (Biochemistry, 2023).

Substrate in the data set: Cc1cc(=O)oc2cc(NC(=O)[C@H](N)CC(C)C)ccc12
Description: Steady-state activity assay with Leu-AMC (fluorescence). The class given is biochemical, Pseudomonas aeruginosa. The settings on record: other: Leu-AMC varied, 3 mM MnCl2, pH 8.0, 25.0 °C. The procedure: A BMG Labtech POLARstar Omega plate reader was used for activity assays and kinetic studies involving amino acids conjugated to para-nitroaniline (pNA) (Sigma) or peptides as substrates. Assays were carried out at 25 °C in clear half-area 96-well plates (Greiner Bio-One). The pNA product formed upon PaPepA-mediated bond cleavage strongly absorbs at 405 nm; therefore, initial rates were measured by monitoring the increase in absorbance at 405 nm over time. For kinetic assays investigating Leu-AMC as a substrate, a SpectraMax M2E was used. Reactions were carried out using black half-area 96-well plates with clear bottoms (Greiner Bio-One). Product formation was assessed by monitoring changes in fluorescence, with the excitation wavelength set at 341 nm and emission at 441 nm. The cutoff was 420 nm. PMT gain was set to medium, with six flashes per read. PaPepA was added at a final concentration of 100 nM to start reactions. Calibration curves of pNA concentration vs absorbance and AMC vs fluorescence were constructed, and initial rate values were divided by the slope of these calibration curves to reveal the rate of product formation over time (Table S2).
For all assays excluding pH dependence curves, buffer conditions were as follows: 100 mM HEPES, 50 mM KCl, and pH 8.0. For assays carried out under pseudo-first-order conditions, one reaction component was fixed and in excess, while the other was varied. If [metal] was varied, [Leu-pNA] was fixed at 2 mM or [Leu-AMC] was fixed at 170 μM. For assays involving variation of aa-pNA or aa-AMC, MnCl2 was added to a final concentration of 3 mM. PaPepA was added at a final concentration of 100 nM in studies containing MnCl2, and to a final concentration of 1 μM in studies containing MgCl2 as the metal cofactor. Table 1 summarizes steady-state parameters described in Scheme 1 and obtained with different substrates.

B1: PaPepA (Pseudomonas aeruginosa UCBPP-PA14) (protein)
chain: MEFLVKSVRPETLKTATLVLAVGEGRKLGASAKAVDDATGGAISAVLKRGDLAGKVGQTLLLQSLPNLKAERVLLVGAGKERELGDRQYRKLASAVLSTLKGLAGADAALALGDLAVKGRGAHAKARLLVETLADGLYVFDRYKSQKAEPLKLKKLTLLADKADSAAVEQGSKEAQAIANGMALTRDLGNLPPNVCHPTFLGEQAKGLAKEFKSLKVEVLDEKKLRELGMGSFLAVAQGSDQPPRLIILQYNGAKKDQAPHVLVGKGITFDTGGISLKPGLGMDEMKFDMCGAASVFGTFRAVLELQLPINLVGLLACAENMPSGGATRPGDIVTTMSGQTVEILNTDAEGRLVLCDALTYAERFKPQSVIDIATLTGACIVALGSNTSGLMGNNEALVRQLLKAGEFADDRAWQLPLFDEYQEQLDSPFADIANIGGPKAGTITAGCFLSRFAKKYHWAHLDIAGTAWISGGKDKGATGRPVPLLTQYLLERAK
notes: GG stays after cleavage) (N); made in house; host or cells: E. coli BL21(DE3)
Regarding B1, the Km (usually the concentration of substrate that gives half-maximal velocity) was determined as 16 ± 1 µM; the kcat – broadly, the number of substrate molecules converted per active site and unit of time at saturation – was determined as 0.56 ± 0.01 s⁻¹; the kcat/Km (usually the turnover number divided by the Michaelis constant) came to 35400 ± 3100 M⁻¹ s⁻¹.
